Changes are numbered by the printed parent chain.
What was measured:
[1] = biological target: T1, yeast small ubiquitin-like modifier protein (yeast, UniProt Q12306 3-98 = SUMO); test: SPR (monobody on the chip via His-tag, target flowed); estimated Kd
T1 construct: GST fusion in most phage ELISAs, His-tagged or tag-cleaved elsewhere; also called ySUMO; yeast SUMO
Method: (§1) Cradle molecules purified as described above were immobilized via His-tag to an NTA surface using a Biacore™ 2000 instrument so that the theoretical maximum response (Rₘₐₓ) from target binding was 100-200 RU. Target protein at varying concentrations was then flowed over the surface at a flow rate of 30 μL/min and the binding signal recorded. Fitting of kinetic traces was carried out using the BIAevaluation software. For equilibrium experiments, the equilibrium binding response was recorded for multiple target concentrations and fit to a simple 1:1 saturation binding curve.

[2] = biological target: T1, yeast small ubiquitin-like modifier …; test: SPR (Biacore 2000), monobody immobilised via His-tag on NTA surface, ySUMO flowed over it
Method: as §1

[3] = biological target: T1, yeast small ubiquitin-like modifier …; test: titration phage ELISA
Method: hSUMO1-binding cradle molecules had varied ability to discriminate hSUMO1 and ySUMO as assessed by phage ELISA (FIGS. 25A and 26A).
For phage amplification, E. coli XL1-Blue cells transformed with the LacI containing plasmid pMCSG21 (Stols, et al., Protein Express. Purif. (2007) 53:396-403) (termed “XL21” hereafter) were used. Cradle molecule displaying phage were prepared by growing XL21 cells transfected with phagemid of individual clones in the presence of 0.2 mM IPTG and helper phage K07 (Koide, A., and Koide, S., supra, 2007; Sidhu, et al., supra, 2000). Cultures were then centrifuged and phage containing supernatant used for ELISA assays. All incubations were at room temperature. In all instances except for the phage titration experiment used to test hSUMO1-binding cradle molecule specificity (FIG. 26), wells of a 96-well Microlon© (Greiner) ELISA plate were treated with a 2 μg/mL solution of a GST-fusion of the appropriate target protein, or GST alone in 50 mM Tris Cl buffer containing 150 mM NaCl, pH 7.5 (TBS) and incubated for 1 hour followed by blocking with 0.5% BSA in TBS for 1 hour.

[4] = biological target: T1, yeast small ubiquitin-like modifier …; test: SPR
Method: as §1

[5] = biological target: T1, yeast small ubiquitin-like modifier …; test: SPR; column 'Estimated Kd (nM)'
Outline: (§2)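 Purified His-tagged molecules were captured on an NTA surface of a Biacore 2000 to reach a theoretical maximum target response of 100-200 RU, and target at varying concentrations was flowed at 30 μL/min. Estimated Kd values come from surface plasmon resonance binding signals, analysed either by kinetic fitting in BIAevaluation software or by fitting equilibrium responses to a saturation binding curve with 1:1 binding.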

[6] = biological target: T1, yeast small ubiquitin-like modifier …; test: SPR, fit of the traces to a 1:1 binding model [panel D]
Method: as §1

[7] = biological target: T1, yeast small ubiquitin-like modifier …; test: SPR; column 'Estimated Kd (nM)' [Continued]
Outline: as §2

human Abl SH2 domain = biological target: T2, human Abl SH2 domain (human, UniProt P00519 112-232, limits assumed); test: phage display selection hit, BL2 library
T2 construct: domain: SH2 domain; poly-histidine tagged in selection; tag cleaved for SPR and crystals; also called Ab1SH2; SH2 domain of Abl kinase
T2 sequence (looked up): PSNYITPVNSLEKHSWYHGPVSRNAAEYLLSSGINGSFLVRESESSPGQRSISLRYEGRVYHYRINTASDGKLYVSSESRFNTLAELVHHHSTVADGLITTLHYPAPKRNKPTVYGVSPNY

[8] = biological target: T1, yeast small ubiquitin-like modifier …; test: SPR; column 'Estimated Kd (nM)' [Continued]; remark: listed apart in the source
Outline: as §2

T1 sequence (Q12306 3-98 limits assumed): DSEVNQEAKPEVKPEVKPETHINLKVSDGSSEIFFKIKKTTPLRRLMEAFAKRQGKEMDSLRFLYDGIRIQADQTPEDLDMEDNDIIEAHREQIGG

B1: Clone# 1 (ySUMO Monobodies) (designed binder)
chain: VSSVPTKLEVVAATPTSLLISWDASSSSVSYYRITYGETGGNSPVQEFTVPGSSSTATISGLSPGVDYTITVYAYYSYYDIYYAVSPSSINYRT
notes: recovered against ySUMO from the SUMO-targeted library
In the case of B1, the Kd [1] is reported as 39 nM.

B2: ySMB-ST1 (designed binder)
chain: B1 chain
Binder B2 has a Kd [2] of 39 nM.

B3: Clone# 2 (ySUMO Monobodies) (designed binder)
chain: B1 chain with Y78E, Y79E, D80F, I81F, Y82D
notes: as for B1
B3 showed a Kd [1] of 194 nM.

B4: ySMB-ST4 (designed binder)
chain: B1 chain with Y78D, Y79D, D80F, I81L, Y82D, Y83F, V85F
For B4, the Kd [2] was 3300 nM.

B5: hS1MB-23 (designed binder)
chain: B1 chain with Y31H, R33E, Y78H, Y79D, Y82F, V85F
With B5 the “fold weaker binding to ySUMO than to hSUMO1” value [3] was ≥ 100 fold.

B6: hS1MB-16 (designed binder)
chain: B1 chain with Y31H, R33D, Y76N, Y78H, Y79D, Y82F, Y83I, V85Y
With B6 the “fold weaker binding to ySUMO than to hSUMO1” value [3] was ≥ 100 fold.

B7: ySMB-2 (designed binder)
chain: B1 chain with Y76W, S77T, Y79E, D80W, I81G, Y83M, A84Y, V85D, S88I
In the case of B7, the Kd [4] is reported as 45 nM, the Kd [5] is reported as 45 nM and the koff [6] is reported as 0.04 s⁻¹. For the same binder, the kon [6] was 970000 M⁻¹ s⁻¹.

B8: ySMB-ST2 (designed binder)
chain: B1 chain with Y78E, Y79E, D80F, I81F, Y82D
For B8, the Kd [2] was 194 nM.

B9: ySMB-ST3 (designed binder)
chain: B1 chain with Y73F, Y78E, Y79E, D80F, I81F, Y82D, V85Y
In the case of B9, the Kd [2] is reported as 435 nM.

B10: Clone# 5 (ySUMO Monobodies) (designed binder)
chain: B1 chain with D80N, Y82F, Y83F, V85D
notes: as for B1
B10 was tested, and the Kd [1] was 112 nM.

B11: ySMB-7 (designed binder)
chain: VSSVPTKLEVVAATPTSLLISWDASSSSVSYYRITYGETGGNSPVQEFTVPGSSSTATISGLSPGVDYTITVYAYQEWSYGWSSESPISINYRT
notes: variable loops only; library YSGW
In the case of B11, the Kd [4] is reported as 800 nM and the Kd [5] is reported as 800 nM.

B12: Clone# 4 (ySUMO Monobodies) (designed binder)
chain: B1 chain with Y78D, Y79D, D80F, I81L, Y82D, Y83F, V85F
notes: as for B1
Work on B12 yielded a Kd [1] of 3300 nM.

B13: Clone# 3 (ySUMO Monobodies) (designed binder)
chain: B1 chain with Y73F, Y78E, Y79E, D80F, I81F, Y82D, V85Y
notes: as for B1
In the case of B13, the Kd [1] is reported as 435 nM.

B14: ySMB-ST5 (designed binder)
chain: B1 chain with D80N, Y82F, Y83F, V85D
With B14 the Kd [2] was 112 nM.

B15: ySMB-90 (designed binder)
chain: B11 chain with Q76Y, E77Y, W78S, S79Y, G81Y, W82S, S83Y, E85Y
notes: variable loops only; library YS
For B15, the Kd [7] was 320 nM.

B16: ySMB-6 (designed binder)
chain: B11 chain with G52S, S53Y, Q76W, W78F, S79E, W82Y, S83W, E85Y
notes: as for B11
Work on B16 yielded a Kd [4] of 166 nM and a Kd [5] of 166 nM.

B17: SEQ ID NO 81 (designed binder)
chain: VSSVPTKLEVVAATPTSLLISWDAPAVTVDLYLITYGETGGNSPVQEFKVPGSKSTATISGLSPGVDYTITVYAGSDYYYYYQGAYWSPISINYRT
B17: binds (human Abl SH2 domain).

B18: ySMB-8 (designed binder)
chain: VSSVPTKLEVVAATPTSLLISWDAYVGYGSSVAYYRITYGETGGNSPVQEFTVPGSSSTATISGLSPGVDYTITVYAYYYEGDDLYSSMSPISINYRT
notes: as for B11
B18 was tested, and the Kd [4] was 350 nM and the Kd [5] was 350 nM.

B19: ySMB-67 (designed binder)
chain: VSSVPTKLEVVAATPTSLLISWDAGSFGFHDPVYYYRITYGETGGNSPVQEFTVPGSSSTATISGLSPGVDYTITVYAYYQYMDYYYSYSPISINYRT
notes: as for B11
With B19 the Kd [7] was 1000 nM.

B20: ySMB-91 (designed binder)
chain: VSSVPTKLEVVAATPTSLLISWDASYSSSSVSYYRITYGETGGNSPVQEFTVPGSSSTATISGLSPGVDYTITVYAYYYSYYYYYSYSPISINYRT
notes: as for B15
Binder B20 has a Kd [7] of 1000 nM.

B21: GG3 (designed binder)
chain: VSSVPTKLEVVAATPTSLLISWDAPAVTVVHYVITYGETGGNSPVQEFTVPGSKSTATISGLSPGVDYTITVYALLSSSHWVYESPISINYRT
B21: binds (human Abl SH2 domain).

B22: ySMB-53 (designed binder)
chain: VSSVPTKLEVVAATPTSLLISWDASSSSVSYYRITYGETGGNSPVQEFTVPGSSSTATISGLSPGVDYTITVYAYQSFGYNEYWSSGSPISINYRT
notes: as for B11
B22 was tested, and the Kd [8] was 380 nM.

B23: ySMB-5 (designed binder)
chain: VSSVPTKLEVVAATPTSLLISWDAPANSVSYYRITYGETGGNSPVQEFTVPGSSSTATISGLSPGVDYTITVYAYEWYGWGWTYSPISINYRT
notes: as for B11
B23 showed a Kd [4] of 100 nM and a Kd [5] of 100 nM.

B24: SEQ ID NO 85 (designed binder)
chain: VSSVPTKLEVVAATPTSLLISWDAPAVTVDLYVITYGETGGNSPVQEFTVPGSKSTATISGLSPGVDYTITVYAGWGNWELGYSWSSPISINYRT
B24: binds (human Abl SH2 domain).

B25: ySMB-54 (designed binder)
chain: VSSVPTKLEVVAATPTSLLISWDAGYDESVMYYRITYGETGGNSPVQEFTVPGSSSTATISGLSPGVDYTITVYAYREYDGLYYSYSPISINYRT
notes: as for B11
Binder B25 has a Kd [8] of 950 nM.

B26: ySMB-64 (designed binder)
chain: VSSVPTKLEVVAATPTSLLISWDASQFSGVSYYRITYGETGGNSPVQEFTVPGSYSTATISGLSPGVDYTITVYAYYHEHWGYYSYSPISINYRT
notes: as for B11
B26 showed a Kd [7] of 280 nM.

B27: ySMB-4 (designed binder)
chain: VSSVPTKLEVVAATPTSLLISWDAPWAYSQSVAYYRITYGETGGNSPVQEFTVPGSSSTATISGLSPGVDYTITVYAYYGTPWGEGWYSWSPISINYRT
notes: as for B11
B27 gave a Kd [4] of 210 nM and a Kd [5] of 210 nM.

B28: SEQ ID NO 82 (designed binder)
chain: VSSVPTKLEVVAATPTSLLISWDAPAVTVDFYVITYGETGGNSPVQEFTVPGSKSTATISGLSPGVDYTITVYANWAYSYRYSPISINYRT
B28: binds (human Abl SH2 domain).

B29: SEQ ID NO 83 (designed binder)
chain: B28 chain with D30F, F31Y, T49E, W76Y, A77P, R81M
B29: binds (human Abl SH2 domain).

B30: SEQ ID NO 84 (designed binder)
chain: B28 chain with F31Y, V33L, N75W, W76D, A77P, S79W, Y80D, R81V, Y82M
B30: binds (human Abl SH2 domain).
